Here are results for 3 substances from doi:10.1101/2022.02.20.481182.

For assay [1], the target named is BRPF2 bromodomain, wild-type, N-terminal His6-tagged (UniProt O95696). The experiment in a line: ITC.
The target is the same in assay [2]. Description: pull-down.
The target in assay [3] is BRPF2 bromodomain F648A mutant (UniProt O95696). The experiment in a line: pull-down.
Chain of BRPF2 bromodomain F648A mutant (O95696 556-688 F648A): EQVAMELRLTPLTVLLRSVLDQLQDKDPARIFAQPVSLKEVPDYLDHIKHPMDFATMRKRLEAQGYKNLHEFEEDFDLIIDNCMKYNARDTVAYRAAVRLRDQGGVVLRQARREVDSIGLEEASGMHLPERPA

Chain of BRPF2 bromodomain, wild-type, N-terminal His6-tagged (O95696 556-688): as the sequence (O95696 556-688 F648A) above, with A93F counted along it

Usually Kd stands for a measure of binding affinity in units of concentration. In turn, “histone H4Kac4 (H4K5/8/12/16) (1-20) peptide (from UniProt P62805 2-21)” returned a Kd in assay [1] of 12.2 µM.

As to “histone H2AK5ac (1-12) peptide (from UniProt P0C0S8 2-13)”, the Kd in assay [1] amounted to 55.2 µM.

In the case of “endogenous hyperacetylated histone H4 bearing the K5ac mark (from UniProt P62805 1-103) (natural protein)”, the fold reduction of binding with BAY-299 against without inhibitor in assay [2] is 3 fold. For the same substance, the fold reduction of binding against the wild type in assay [3] stood at 1.5 fold.
